# Measurements reported in patent US20240190948A1 (Chugai, published 2024).
# Substitutions are numbered along the chain they refer to.
# T1: human FcγRIIIb (NA2) (human, UniProt O75015 17-200)
# T1 construct: also called human FcγR3b allelic variant NA2
# T1 chain: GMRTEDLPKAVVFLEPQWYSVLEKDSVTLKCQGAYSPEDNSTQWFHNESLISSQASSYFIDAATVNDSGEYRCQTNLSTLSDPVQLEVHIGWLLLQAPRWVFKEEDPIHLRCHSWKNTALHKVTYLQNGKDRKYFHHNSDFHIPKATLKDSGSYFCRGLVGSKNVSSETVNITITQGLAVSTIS
# T2: human FcγRIIa (167R) (human, UniProt P12318 36-217)
# T2 construct: also called human FcγR2a allelic variant 167R
# T2 chain: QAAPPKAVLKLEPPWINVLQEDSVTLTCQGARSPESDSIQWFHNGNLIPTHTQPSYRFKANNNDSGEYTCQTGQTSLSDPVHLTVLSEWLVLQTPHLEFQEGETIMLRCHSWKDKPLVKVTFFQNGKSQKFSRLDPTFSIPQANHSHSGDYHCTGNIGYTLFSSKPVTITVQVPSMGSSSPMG
# T3: mouse FcγRI (mouse, UniProt P26151 25-297)
# T3 construct: also called mFcγRI; mouse FcγR1
# T3 sequence: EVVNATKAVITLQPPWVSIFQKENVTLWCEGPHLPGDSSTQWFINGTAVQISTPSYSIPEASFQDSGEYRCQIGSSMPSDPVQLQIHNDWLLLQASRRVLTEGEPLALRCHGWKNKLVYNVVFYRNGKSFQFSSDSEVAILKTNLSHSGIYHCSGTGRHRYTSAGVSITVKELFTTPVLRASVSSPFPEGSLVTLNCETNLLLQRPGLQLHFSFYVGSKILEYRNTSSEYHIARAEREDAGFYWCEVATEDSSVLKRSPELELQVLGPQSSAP
# T4: mouse FcγRIV (mouse, UniProt A0A0B4J1G0 21-203)
# T4 construct: also called mFcγRIV; mouse FcγR4
# T4 sequence: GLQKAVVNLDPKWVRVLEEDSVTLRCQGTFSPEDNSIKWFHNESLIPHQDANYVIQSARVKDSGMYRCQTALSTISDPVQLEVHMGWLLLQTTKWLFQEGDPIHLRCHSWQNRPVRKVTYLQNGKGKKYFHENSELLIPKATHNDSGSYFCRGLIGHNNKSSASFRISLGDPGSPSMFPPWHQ
# T5: mouse FcγRIII (mouse, UniProt P08508 31-215)
# T5 construct: also called mFcγRIII; mouse FcγR3
# T5 chain: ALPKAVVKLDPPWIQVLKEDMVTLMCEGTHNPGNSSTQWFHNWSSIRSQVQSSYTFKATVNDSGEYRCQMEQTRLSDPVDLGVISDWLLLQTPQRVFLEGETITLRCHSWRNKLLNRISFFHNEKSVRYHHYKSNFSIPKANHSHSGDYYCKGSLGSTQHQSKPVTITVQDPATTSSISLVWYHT
# T6: human FcγRIIb (human, UniProt P31994 43-217)
# T6 construct: also called human FcγR2b
# T6 sequence: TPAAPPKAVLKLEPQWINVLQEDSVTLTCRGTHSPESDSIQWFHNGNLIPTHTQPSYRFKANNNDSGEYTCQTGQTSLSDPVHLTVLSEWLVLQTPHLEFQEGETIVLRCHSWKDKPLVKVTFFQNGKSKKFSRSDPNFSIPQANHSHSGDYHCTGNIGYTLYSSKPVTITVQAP
# T7: human FcγRIIIb (NA1) (human, UniProt O75015 17-200)
# T7 construct: also called human FcγR3b allelic variant NA1
# T7 chain: T1 chain with S20R, S49N, N66D, I90V
# B1: DG_3CH-SG182/3CL-SK1 (antibody, V domains shown)
# VH: QVQLVQSGPDVEKPGASVKVSCKASGYTFTSNYIHWVRQAPGQGLEWMGVINPRGGSTASAQKFQGRITMTRDTSTSTVYMELSSLRSDDTAVYYCARGGRALFYDSYTTPRDGGSWWFDPWGQGSLVTVSS
# VL: DIQLTQSPSSLSASVGDRVTFTCQASQDIRKYLNWYQQKPGKAPKLLIYDASNLKTGVPSRFSGSGSGTDFTFTISSLQPEDVATYYCQQFDDLPITFGQGTRLQIKR
# B2: DG_3CH953-SG182/3CL499-SK1 (antibody, human IgG1, kappa, V domains shown)
# VH: B1 VH with T58R, A59R, D89E, R112F
# VL: B1 VL with T56F, D93A
# B3: DG_3CH987-SG182/3CL-SK1 (antibody, V domains shown)
# VH: B1 VH with N32Y, T58R, A59R, D89E, R112F
# VL: B1 VL
# B4: Anti-CD154 antibody with Fc variant LALA + KAES (SG1095) (antibody, human IgG1, kappa, L234A L235A)
# heavy: EVQLVESGGGSVKPGGSLKLSCAASGFTFSDHYMYWVRQTPEKRLEWVAIISGGGSYTSYPDSMKGRFTISRDNAKNILHLQMSSLKSEDTAMYYCTRESNGKPGFAYWGQGTLVTVSAASTKGPSVFPLAPSSKSTSGGTAALGCLVKDYFPEPVTVSWNSGALTSGVHTFPAVLQSSGLYSLSSVVTVPSSSLGTQTYICNVNHKPSNTKVDKRVEPKSCDKTHTCPPCPAPEAAGGPSVFLFPPKPKDTLMISRTPEVTCVVVDVSHEDPEVKFNWYVDGVEVHNAKTKPREEQYNSTYRVVSVLTVLHQDWLNGKEYKCKVSNAALPAPISKTISKAKGQPREPQVYTLPPSREEMTKNQVSLTCLVKGFYPSDIAVEWESNGQPENNYKTTPPVLDSDGSFFLYSKLTVDKSRWQQGNVFSCSVMHEALHNHYTQKSLSLSP
# light: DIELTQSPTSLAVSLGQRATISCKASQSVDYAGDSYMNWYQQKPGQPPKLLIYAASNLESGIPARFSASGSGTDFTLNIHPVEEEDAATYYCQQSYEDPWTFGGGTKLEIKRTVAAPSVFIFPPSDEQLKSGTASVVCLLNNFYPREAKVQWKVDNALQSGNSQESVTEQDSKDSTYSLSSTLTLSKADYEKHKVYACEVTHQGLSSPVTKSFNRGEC
# B5: Anti-CD154 antibody with Fc variant LALA + KWES (SG1088) (antibody, human IgG1, kappa, L234A L235A)
# heavy: B4 heavy with A328W
# light: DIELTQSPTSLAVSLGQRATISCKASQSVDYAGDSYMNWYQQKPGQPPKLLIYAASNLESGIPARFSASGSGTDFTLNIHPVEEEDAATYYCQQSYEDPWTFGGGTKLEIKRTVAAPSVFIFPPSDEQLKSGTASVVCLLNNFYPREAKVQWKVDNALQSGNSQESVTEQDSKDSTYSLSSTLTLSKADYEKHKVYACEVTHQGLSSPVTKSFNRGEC
# B6: DG_3CH1047-SG1106/3CL-SK1 (antibody)
# heavy: QVQLVQSGPDVEKPGASVKVSCKASGYTFTSYYMHWVRQAPGQGLEWMGVINPRGGSRRSAQKFQGRITMTRDTSTSTVYMELSSLRSEDTAVYYCARGGEALFYDSYTTPFDGGSWWFDPWGQGSLVTVSSASTKGPSVFPLAPSSKSTSGGTAALGCLVKDYFPEPVTVSWNSGALTSGVHTFPAVLQSSGLYSLSSVVTVPSSSLGTQTYICNVNHKPSNTKVDKRVEPKSCDKTHTCPPCPAPEAAGGPSVFLFPPKPKDTLMISRTPEVTCVVVDVSHEDPEVKFNWYVDGVEVHNAKTKPREEQYNSTYRVVSVLTVLHQDWLNGKEYKCKVSNAALPAPISKTISKAKGQPREPQVYTLPPSREEMTKNQVSLTCLVKGFYPSDIAVEWESNGQPENNYKTTPPVLDSDGSFFLYSKLTVDKSRWQQGNVFSCSVLHEALHAHYTRKELSLSP
# light: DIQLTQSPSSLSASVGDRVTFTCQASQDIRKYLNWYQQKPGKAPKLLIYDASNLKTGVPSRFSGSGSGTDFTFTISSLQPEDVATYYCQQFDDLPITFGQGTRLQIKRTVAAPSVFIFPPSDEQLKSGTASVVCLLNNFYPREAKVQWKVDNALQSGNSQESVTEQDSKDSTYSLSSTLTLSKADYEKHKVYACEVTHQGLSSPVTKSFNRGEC
# Legend:
# [1] = biological target: T8, Recombinant soluble E protein (0.8E-His) from DENV-3 (DENV-3, UniProt P27915 281-673)
# [2] = biological target: T8, Recombinant soluble E protein …; assay: SPR Biacore T200
# human FcγRIIIb (NA2) = biological target: T1, human FcγRIIIb (NA2); assay: SPR (Biacore T200, pH 7.4): His-tagged FcγR captured, antibody alone or 1:1 immune complex with trimeric CD154 injected at 100 nM; response divided by capture level [h]
# human FcγRIIa (167R) = biological target: T2, human FcγRIIa (167R); assay: SPR (Biacore T200, pH 7.4): His-tagged FcγR captured, antibody alone or 1:1 immune complex with trimeric CD154 injected at 100 nM; response divided by capture level [c]
# mouse FcγRI = biological target: T3, mouse FcγRI; assay: SPR (Biacore T200, pH 7.4): His-tagged FcγR captured, antibody alone or 1:1 immune complex with trimeric CD154 injected at 100 nM; response divided by capture level [a]
# mouse FcγRIV = biological target: T4, mouse FcγRIV; assay: SPR (Biacore T200, pH 7.4): His-tagged FcγR captured, antibody alone or 1:1 immune complex with trimeric CD154 injected at 100 nM; response divided by capture level [d]
# mouse FcγRIII = biological target: T5, mouse FcγRIII; assay: SPR (Biacore T200, pH 7.4): His-tagged FcγR captured, antibody alone or 1:1 immune complex with trimeric CD154 injected at 100 nM; response divided by capture level [c]
# human FcγRIIb = biological target: T6, human FcγRIIb; assay: SPR (Biacore T200, pH 7.4): His-tagged FcγR captured, antibody alone or 1:1 immune complex with trimeric CD154 injected at 100 nM; response divided by capture level [d]
# human FcγRIIIb (NA1) = biological target: T7, human FcγRIIIb (NA1); assay: SPR (Biacore T200, pH 7.4): His-tagged FcγR captured, antibody alone or 1:1 immune complex with trimeric CD154 injected at 100 nM; response divided by capture level [g]
# [3] = biological target: Zika virus (Asian strain, accession number KF993678) (Zika virus); assay: cell-based or functional assay
Binder,Kd [1] [nM],binding result (human FcγRIIIb (NA2)),binding result (mouse FcγRIV),binding result (human FcγRIIb),binding result (human FcγRIIIb (NA1)),other results
B1,6.35,–,–,–,–,–
B2,–,–,–,–,–,binding result [2]: binds
B3,0.000988,–,–,–,–,–
B4,–,no binding (tested: 100 nM),no binding (tested: 100 nM),no binding (tested: 100 nM),no binding (tested: 100 nM),binding result (human FcγRIIa (167R)): no binding (tested: 100 nM); binding result (mouse FcγRI): no binding (tested: 100 nM); binding result (mouse FcγRIII): no binding (tested: 100 nM)
B5,–,no binding (tested: 100 nM),no binding (tested: 100 nM),no binding (tested: 100 nM),no binding (tested: 100 nM),–
B6,–,–,–,–,–,"EC50 (µg/mL), FRNT neutralization, Average [3]: 0.63 µg/mL; EC50 (µg/mL), FRNT neutralization, Expt 1 [3]: 0.33 µg/mL; EC50 (µg/mL), FRNT neutralization, Expt 2 [3]: 0.93 µg/mL"
